Series [1] has as its target T1, HCF152 (UniProt Q9SF38 66-778).
T1 sequence: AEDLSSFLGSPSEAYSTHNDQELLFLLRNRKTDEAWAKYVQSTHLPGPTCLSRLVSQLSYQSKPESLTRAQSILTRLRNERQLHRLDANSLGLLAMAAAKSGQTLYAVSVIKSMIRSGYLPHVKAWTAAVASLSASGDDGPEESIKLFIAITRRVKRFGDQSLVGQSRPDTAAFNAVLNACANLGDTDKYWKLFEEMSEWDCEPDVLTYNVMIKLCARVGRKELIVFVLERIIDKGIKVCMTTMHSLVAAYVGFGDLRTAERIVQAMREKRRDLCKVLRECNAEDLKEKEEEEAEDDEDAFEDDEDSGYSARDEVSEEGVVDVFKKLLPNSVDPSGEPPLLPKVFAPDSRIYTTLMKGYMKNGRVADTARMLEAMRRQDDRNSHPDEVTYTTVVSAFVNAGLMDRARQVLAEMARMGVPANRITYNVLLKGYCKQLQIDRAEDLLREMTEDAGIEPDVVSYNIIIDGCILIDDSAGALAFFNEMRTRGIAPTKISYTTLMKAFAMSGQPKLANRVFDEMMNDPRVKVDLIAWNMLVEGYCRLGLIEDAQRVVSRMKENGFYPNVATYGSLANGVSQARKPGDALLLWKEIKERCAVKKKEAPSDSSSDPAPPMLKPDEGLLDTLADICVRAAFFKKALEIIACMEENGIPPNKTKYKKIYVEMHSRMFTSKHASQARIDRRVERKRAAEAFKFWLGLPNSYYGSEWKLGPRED
In words: filter binding; 30 min and overnight (~13 h); tighter apparent KD overnight; EMSA: 40 mM Tris-HCl pH 7.5, 140 mM NaCl, 10% glycerol, 4 mM DTT, 0.1 mg/mL BSA, 0.5 mg/mL heparin, RNAsin, 5 pM RNA, 25 C, 30 min; SPR: 100 mM HEPES pH 7.5, 150 mM NaCl, 3 mM EDTA, 1 mM 2-mercaptoethanol, 0.005% P20. To be noted: protein: recombinant; tags: MBP fusion, MBP cleaved off; label: 5' 32P.

Series [2] deals with T2, PPR10 (UniProt B8Y6I0 96-786).
T2 sequence: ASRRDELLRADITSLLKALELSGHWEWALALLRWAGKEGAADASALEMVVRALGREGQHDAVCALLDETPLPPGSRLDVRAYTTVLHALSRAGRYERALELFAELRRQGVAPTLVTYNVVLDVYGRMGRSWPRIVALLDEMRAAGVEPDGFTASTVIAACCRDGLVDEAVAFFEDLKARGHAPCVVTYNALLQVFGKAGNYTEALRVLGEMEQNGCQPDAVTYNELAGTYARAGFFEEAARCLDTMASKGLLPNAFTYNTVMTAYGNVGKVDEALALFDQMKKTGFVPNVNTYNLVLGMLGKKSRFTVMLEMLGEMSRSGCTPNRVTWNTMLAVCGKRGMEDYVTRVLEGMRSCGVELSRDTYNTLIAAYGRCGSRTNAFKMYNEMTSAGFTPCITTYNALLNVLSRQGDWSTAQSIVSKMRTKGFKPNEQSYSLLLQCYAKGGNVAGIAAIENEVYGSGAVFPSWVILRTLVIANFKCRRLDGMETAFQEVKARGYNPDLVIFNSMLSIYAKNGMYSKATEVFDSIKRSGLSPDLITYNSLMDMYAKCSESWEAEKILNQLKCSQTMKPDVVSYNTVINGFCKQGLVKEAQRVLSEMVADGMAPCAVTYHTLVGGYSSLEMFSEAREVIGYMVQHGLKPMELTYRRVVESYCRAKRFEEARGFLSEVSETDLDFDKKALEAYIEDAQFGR
In words: SPR; 150 mM NaCl; ka ~2e7 M-1s-1; EMSA: 40 mM Tris-HCl pH 7.5, 140 mM NaCl, 10% glycerol, 4 mM DTT, 0.1 mg/mL BSA, 0.5 mg/mL heparin, RNAsin, 5 pM RNA, 25 C, 30 min; SPR: 100 mM HEPES pH 7.5, 150 mM NaCl, 3 mM EDTA, 1 mM 2-mercaptoethanol, 0.005% P20. The settings on record: protein: recombinant; tags: MBP fusion, MBP cleaved off; label: 3' biotin, 6-carbon linker; unstructured. For orientation: Surface plasmon resonance follows binding to a sensor surface in real time, without labels.

The target of series [3] is T2, PPR10. In words: EMSA; 0.5 mg/mL heparin, 140 mM NaCl; EMSA: 40 mM Tris-HCl pH 7.5, 140 mM NaCl, 10% glycerol, 4 mM DTT, 0.1 mg/mL BSA, 0.5 mg/mL heparin, RNAsin, 5 pM RNA, 25 C, 30 min; SPR: 100 mM HEPES pH 7.5, 150 mM NaCl, 3 mM EDTA, 1 mM 2-mercaptoethanol, 0.005% P20. The settings on record: protein: recombinant; tags: MBP fusion, MBP cleaved off; label: 5' 32P; unstructured.

For series [4], the target named is T1, HCF152. The experiment in a line: SPR; 150 mM NaCl; half-life ~2 h; KD ~30-fold lower than earlier EMSA; EMSA: 40 mM Tris-HCl pH 7.5, 140 mM NaCl, 10% glycerol, 4 mM DTT, 0.1 mg/mL BSA, 0.5 mg/mL heparin, RNAsin, 5 pM RNA, 25 C, 30 min; SPR: 100 mM HEPES pH 7.5, 150 mM NaCl, 3 mM EDTA, 1 mM 2-mercaptoethanol, 0.005% P20. To be noted: protein: recombinant; tags: MBP fusion, MBP cleaved off; label: 3' biotin, 6-carbon linker.

Data on four molecules can be found in paper PMC6303017, “Effects of RNA structure and salt concentration on the affinity and kinetics of interactions between pentatricopeptide repeat proteins and their RNA ligands”.

B1: petB RNA (GMS/FB) (ssRNA)
RNA: GGUAGUUCGACCGUGGA
As for B1, the binding result in the series with HCF152 [1] is listed as “binds”.

B2: atpH SPR RNA (ssRNA)
RNA: GAUUGUAUCCUUAACCAUUUCUUUU
As to B2, the Kd with PPR10 [2] was about 0.01 nM.

B3: atpH-23mer (ssRNA)
RNA: AUUGUAUCCUUAACCAUUUCUUU
With B3, the Kd in the series with PPR10 [3] is about 0.05 nM.

B4: petB SPR RNA (ssRNA)
RNA: UGGUAGUUCGACGUGGAUUUU
B4: in the series with HCF152 [4], the binding result is “binds”.

Broadly, the Kd is the constant that tells how readily two partners part at equilibrium.
